Assay results: publication PMC6327041, “Histone H3 binding to the PHD1 domain of histone demethylase KDM5A enables active site remodeling” (Nature Communications, 2019)

B1: KDM5A_(1-797) (enzyme)
chain: MAGVGPGGYAAEFVPPPECPVFEPSWEEFTDPLSFIGRIRPLAEKTGICKIRPPKDWQPPFACEVKSFRFTPRVQRLNELEAMTRVRLDFLDQLAKFWELQGSTLKIPVVERKILDLYALSKIVASKGGFEMVTKEKKWSKVGSRLGYLPGKGTGSLLKSHYERILYPYELFQSGVSLMGVQMPNLDLKEKVEPEVLSTDTQTSPEPGTRMNILPKRTRRVKTQSESGDVSRNTELKKLQIFGAGPKVVGLAMGTKDKEDEVTRRRKVTNRSDAFNMQMRQRKGTLSVNFVDLYVCMFCGRGNNEDKLLLCDGCDDSYHTFCLIPPLPDVPKGDWRCPKCVAEECSKPREAFGFEQAVREYTLQSFGEMADNFKSDYFNMPVHMVPTELVEKEFWRLVSSIEEDVIVEYGADISSKDFGSGFPVKDGRRKILPEEEEYALSGWNLNNMPVLEQSVLAHINVDISGMKVPWLYVGMCFSSFCWHIEDHWSYSINYLHWGEPKTWYGVPSHAAEQLEEVMRELAPELFESQPDLLHQLVTIMNPNVLMEHGVPVYRTNQCAGEFVVTFPRAYHSGFNQGYNFAEAVNFCTADWLPIGRQCVNHYRRLRRHCVFSHEELIFKMAADPECLDVGLAAMVCKELTLMTEEETRLRESVVQMGVLMSEEEVFELVPDDERQCSACRTTCFLSALTCSCNPERLVCLYHPTDLCPCPMQKKCLRYRYPLEDLPSLLYGVKVRAQSYDTWVSRVTEALSANFNHKKDLIELRVMLEDAEDRKYPENDLFRKLRDAVKEAETCASV
B2: KDM5A1-797 (Homo sapiens) (protein)
chain: B1 chain
notes: KDM5A1-797 was cloned into a pFASTBAC HTA vector; His (N, cleaved yes); made in house; host or cells: Sf21 insect cells (baculovirus)

Assays:
[1] = target: C-terminally 5-carboxyfluorescein (5-FAM) conjugated Ac-H3K4me3 31mer peptide; experiment: fluorescence polarisation; direct FP: Ac-H3K4me3-fluorescein 31mer with varying KDM5A_(1-797); 400 µM MnCl2 and 400 µM N-OG; no effector peptide; Kd read at 1 min (the signal decreases over time)
[2] = target: C-terminally 5-carboxyfluorescein (5-FAM) conjugated Ac-H3K4me3 31mer peptide; experiment: fluorescence polarisation; direct FP: Ac-H3K4me3-fluorescein 31mer with varying KDM5A_(1-797); 400 µM MnCl2 and 400 µM N-OG; with 350 µM H3 10mer effector peptide; Kd read at 1 min (the signal is stable for at least 1 h)
[3] = substrate: C[C@H](N)C(=O)N[C@@H](CCCNC(=N)N)C(=O)N[C@H](C(=O)N[C@@H](CCCC[N+](C)(C)C)C(=O)N[C@@H](CCC(N)=O)C(=O)N[C@H](C(=O)N[C@@H](C)C(=O)N[C@@H](CCCNC(=N)N)C(=O)N[C@@H](CCCCN)C(=O)N[C@@H](CO)C(=O)O)[C@@H](C)O)[C@@H](C)O; experiment: KDM5A demethylation, FDH-coupled formaldehyde release assay; type: biochemical, human; details: other: H3K4me3 10mer as substrate (Figure S3, response to reviewers)
Method: WT KDM5A1-797 was expressed in Sf21 cells following Invitrogen Bac-to-Bac baculovirus expression system protocol. KDM5A1-797 was cloned into a pFASTBAC HTA vector. Purified bacmid was transfected in Sf21 cells. Approximately 0.8 × 10^−5 cells per well of a six-well dish were allowed to attach in 2 ml of SF-900 II SFM media containing 50 U ml^−1 penicillin and 50 μg ml^−1 streptomycin. While cells attached, 8 μl of Cellfectin II reagent (Invitrogen) in 100 μl of unsupplemented Grace’s medium was mixed with ~2–5 μg of bacmid in 100 μl of unsupplemented Grace’s medium and incubated for 15–30 min at 25 °C. Once cells were attached, media was removed and cells were washed with 2 ml of Grace’s unsupplemented media. The bacmid DNA:Cellfectin mixture was then diluted to 1 ml with Grace’s unsupplemented media and added to the well. Cells with bacmid:Cellfectin II mixture were incubated for 5 h at 27 °C. After 5 h of incubation, bacmid:Cellfectin mixture was removed and replaced with 2 ml of SF-900 II SFM 50 U ml^−1 penicillin and 50 μg ml^−1 streptomycin. […]
Reactions were performed in 50 mM HEPES, 50 mM KCl, 1 mM α-ketoglutarate, 50 μM Fe(NH4)2(SO4)2, 2 mM ascorbic acid, 2 mM NAD^+ and 0.05 U FDH (Sigma) at pH 7.5 at room temperature. […] An NADH standard curve was used to convert fluorescence to concentration of product formed. […] Michaelis–Menten parameters were determined using Graphpad Prism.

Binder	Kd [1] [µM]	Kd [2] [µM]	Km [3] [µM]
B1	56.9	62.5	–
B2	–	–	770
